Source: article PMC3643605 (Nucleic Acids Research, 2013)
Read-outs that look alike come from different tables or passages of the source.

B1: C-terminal His6-tagged Neisseria HU protein (natural protein, UniProt P64389 1-89, looked up)
chain: MNKSELIEAIAQEADISKAAAQKALDATTNAVTTALKQGDTVTLVGFGTFYVGERAERQGRNPKTGEPLTIAAAKTPKFRAGKALKDAL

Experiments:
[1] = target: T1, DMP12 (Neisseria meningitidis conserved hypothetical protein NMB2123), tag-free (N. meningitidis, UniProt Q9JXC6 1-118); experiment: ITC
T1 sequence (looked up): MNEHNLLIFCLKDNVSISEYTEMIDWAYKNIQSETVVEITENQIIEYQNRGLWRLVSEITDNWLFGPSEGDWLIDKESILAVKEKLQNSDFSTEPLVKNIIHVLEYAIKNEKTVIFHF

[2] = target: T1, DMP12 (Neisseria meningitidis conserved …); experiment: ITC; remark: listed apart in the source
SEC = target: the molecule itself; experiment: SEC
AUC = target: the molecule itself; experiment: AUC
[3] = target: B1; experiment: SEC
HU (C-His6) = target: T2, HU (C-His6) (Neisseria meningitidis, UniProt P64389 1-89); experiment: ITC
T2 sequence: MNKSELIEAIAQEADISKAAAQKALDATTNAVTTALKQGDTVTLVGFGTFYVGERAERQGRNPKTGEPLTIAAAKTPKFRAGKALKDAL

## B1
[1]
  Kd: 2810 ± 430 nM
[2]
  Kd: 2820 ± 430 nM
  dH: -6.17 ± 0.55 kcal/mol
  stoichiometry N: 0.96 ± 0.01
SEC
  stoichiometry N: 2
AUC
  stoichiometry N: 2

B2: N-terminal His10-tagged DMP12 (natural protein, N. meningitidis, UniProt Q9JXC6 1-118, looked up)
chain: MNEHNLLIFCLKDNVSISEYTEMIDWAYKNIQSETVVEITENQIIEYQNRGLWRLVSEITDNWLFGPSEGDWLIDKESILAVKEKLQNSDFSTEPLVKNIIHVLEYAIKNEKTVIFHF
[3]
  stoichiometry N: 1 DMP12 monomer per HU dimer

B3: 8mer dsDNA (dsDNA)
DNA 1: CTCGCGAG
DNA 2: CTCGCGAG
HU (C-His6)
  Kd: 720 ± 60 nM
